Reference: publication doi:10.1101/2020.05.08.083964 (bioRxiv, 2020)

Experiments:
[1] = biological target: S-ECD of SARS-CoV-2 (cryo-EM sample) (SARS-CoV-2, Wuhan-Hu-1); test: cryo-EM structure
[2] = biological target: T1, extracellular domain of the SARS-CoV-2 S protein (S-ECD) (SARS-CoV-2, Wuhan-Hu-1); test: cell-based or functional assay
[3] = biological target: T1, extracellular domain of the SARS-CoV-2 …; test: BLI

B1: 4A8 (antibody, V domains shown)
VH: EVQLVESGAEVKKPGASVKVSCKVSGYTLTELSMHWVRQAPGKGLEWMGGFDPEDGETMYAQKFQGRVTMTEDTSTDTAYMELSSLRSEDTAVYYCATSTAVAGTPDLFDYYYGMDVWGQGTTVTVSS
VL: EIVMTQSPLSSPVTLGQPASISCRSSQSLVHSDGNTYLSWLQQRPGQPPRLLIYKISNRFSGVPDRFSGSGAGTDFTLKISRVEAEDVGVYYCTQATQFPYTFGQGTKVDIK
stoichiometry N [1]: 3
neutralization of live (authentic) SARS-CoV-2 in Vero-E6 cells, EC50 [2]: 0.607 µg/mL
Kd [3]: < 2.14 nM
